How the values were obtained:
[1] = biological target: HA of A/Texas/50/2012 (H3N2) (influenza A virus (H3N2))
[2] = biological target: HA of A/Texas/36/1991 (H1N1) (influenza A virus (H1N1))
[3] = biological target: HA of A/Solomon Islands/03/2006 (H1N1) (influenza A virus (H1N1))

Binder | EC50 [1] [µg/mL] | EC50 [2] [µg/mL] | EC50 [3] [µg/mL]
rFluA-20 heavy chain mutant Y34A (antibody, V domains shown) VH: QVQLQESGPGLVKPSETLSLTCSVSGVSVTSDIAYWTWIRQPPGKGLEWIGYIFYNGDTNYNPSLKSRVTMSIDTSKNEFSLRLTSVTAADTAVYFCARGTEDLGYCSSGSCPNHWGQGTLVTVSS VL: DIQMTQSPSSLSASIGDRVTITCRPSQNIRSFLNWFQHKPGKAPKLLIYAASNLQSGVPSRFSGSGSGTEFTLTIRSLQPEDFATYYCQQSYNTPPTFGQGTKVEIK | 0.16 | 0.05 | 0.04
rFluA-20 heavy chain mutant T96A (antibody, V domains shown) VH: QVQLQESGPGLVKPSETLSLTCSVSGVSVTSDIYYWTWIRQPPGKGLEWIGYIFYNGDTNYNPSLKSRVTMSIDTSKNEFSLRLTSVTAADTAVYFCARGAEDLGYCSSGSCPNHWGQGTLVTVSS VL: DIQMTQSPSSLSASIGDRVTITCRPSQNIRSFLNWFQHKPGKAPKLLIYAASNLQSGVPSRFSGSGSGTEFTLTIRSLQPEDFATYYCQQSYNTPPTFGQGTKVEIK | 0.07 | 0.04 | 0.03
rFluA-20 heavy chain mutant E97A (antibody, V domains shown) VH: QVQLQESGPGLVKPSETLSLTCSVSGVSVTSDIYYWTWIRQPPGKGLEWIGYIFYNGDTNYNPSLKSRVTMSIDTSKNEFSLRLTSVTAADTAVYFCARGTADLGYCSSGSCPNHWGQGTLVTVSS VL: DIQMTQSPSSLSASIGDRVTITCRPSQNIRSFLNWFQHKPGKAPKLLIYAASNLQSGVPSRFSGSGSGTEFTLTIRSLQPEDFATYYCQQSYNTPPTFGQGTKVEIK | 0.18 | 0.05 | 0.07

From US20210252150A1
